The values that follow come from PMC8473560, “Molecular basis of C-S bond cleavage in the glycyl radical enzyme isethionate sulfite-lyase” (Cell Chemical Biology, 2021).

For series [1], the system named is O=S(=O)(O)CCO. The series is described as follows: purified protein. Type of series: biochemical, Bilophila wadsworthia. Conditions: IslA activated by IslB and S-adenosylmethionine, anoxic, 30 °C, isethionate 1-50 mM, kcat not normalized to glycyl radical content.
Series [2] relates to O=S(=O)(O)CCO. Description: purified protein. Conditions: IslA activated by IslB and S-adenosylmethionine, anoxic, 30 °C, isethionate 1-50 mM, kcat not normalized to glycyl radical content.
The target in series [3] is T1, IslA (isethionate sulfite-lyase) (Bilophila wadsworthia, UniProt E5Y378).
T1 construct: full length, 830 residues, N-terminal His-tag kept (pET-28a), expressed in E. coli BL21(DE3); homodimer
Description: X-ray crystal structure, […] Å. In kind it is binding. The settings on record: unactivated enzyme, aerobic, 30 mM sodium isethionate, pH 7.5, 22 °C; active site.

Series [4] concerns the molecule itself. Description: crystal structure; hanging drop vapor diffusion at 22°C, aerobic; unactivated IslA with intact N-terminal His-tag, 7.5 mg/mL in 50 mM HEPES pH 7.5, 50 mM NaCl; glycerol-bound (2.26 Å, P21212) and isethionate-bound (2.70 Å, P212121) crystal forms.

In general, Km refers to the concentration of substrate that gives half-maximal velocity. Broadly, the kcat is the number of substrate molecules converted per active site and unit of time at saturation. For the molecule “IslA (isethionate sulfite-lyase) (Bilophila wadsworthia 3_1_6; F682Y)”, in series [1], the Km is reported as 8 ± 1 mM and the kcat amounted to 0.0074 ± 0.0003 s⁻¹.

For the molecule “IslA (isethionate sulfite-lyase) (Bilophila wadsworthia 3_1_6; I192A)”, in series [1], the Km is 12 ± 2 mM and the kcat came to 0.4 ± 0.02 s⁻¹.

For “IslA (isethionate sulfite-lyase) (Bilophila wadsworthia 3_1_6; F682A)”, in series [1], the Km is listed as 6.8 ± 0.6 mM and the kcat stood at 0.0171 ± 0.0004 s⁻¹. Regarding “IslA (isethionate sulfite-lyase) (Bilophila wadsworthia 3_1_6)”, in series [2], the Km is 8 ± 2 mM.

On to “IslA (isethionate sulfite-lyase) (Bilophila wadsworthia 3_1_6; W374F)”, for which, in series [1], the Km is 11 ± 1 mM and the kcat came out at 0.063 ± 0.003 s⁻¹. For `O=S(=O)(O)CCO` [isethionate, 2-hydroxyethanesulfonate], the “X-ray crystal structure, 2.70 Å” value in series [3] is listed as “a second IslA structure with the substrate Ise bound was obtained”. As to “IslA (isethionate sulfite-lyase) (Bilophila wadsworthia 3_1_6; W374Y)”, in series [1], the Km came to 16.0 ± 0.9 mM and the kcat came out at 0.14 ± 0.003 s⁻¹.

B1: isethionate sulfite-lyase (IslA) from Bilophila wadsworthia 3.1.6 (enzyme)
chain: MTQVAEIKSPHEQRLEDNIAGKEDIYRESHKRVFKLLERFDGQKPAIDVERALYFTQSMAETVGQPLVLRWAKALMNVAKNITVMVQDDQLLLGRCGGHDGRYGILYPELDGDFLDIAVRDLPTRPQSPASISPEDAKIVVEQIAPFWKGRTYHEALNKALPAEVHKLTYDDPDGLISRFIVNETSSFRSSIQWVHDYEVVLKRGFNGLKQEMEEKLAALDPASPVDQVDKRPFIEATILVCDAIVLWAKRHADAARKAAEACADPVRKAELIRMAENAEHVPANPARDFYEAVQSQYFTQMFSRLEQKTGTTISNGRMDQYFYPFYKKDMEAGILTDEKTLEYLECMWVGMAEFIDMYISPAGGAFNEGYAHWEAVTIGGQTPDGRDATNDLTYLFLKSKREFPLHYPDLAARIHSRAPERYLWDVAETIKFGSGFPKLCNDEECIPLYVSKGATFEEALDYAVSGCIEIRMPNRDTYTSGGAYTNFASAVEMALYDGKMKKYGDVQLGIQTGDARKFKSWDEFWNAYVQQHMLLLRTTFIQQYIVIQTRAKHFAQPMGSVLHALCRKHCIDLHQPQIPEGLNFGYFEFMGLGTVIDSLAAIKKLVFEDKKLTMDQLIDALEANFEGYEDIQQLLRTAPCYGNDDEYADEIGRELDRMAVSFAAKYGKEMGINNDARYVPFTSHVPFGKVVSATPNGRVAWFPLADGSSPSHGADHNGPTAILLSNHNTKNYGMRARAARLINVKFTPKCVEGDAGTEKLVQFIRTWCDLKLWHIQFNVINADTLKKAQKDPQKYRNLIVRIAGYSAYFVDLTPDLQNDLIARTGHDQM
notes: Isethionate sulfite-lyase IslA, Bilophila wadsworthia 3.1.6, wild type; expressed from pET-28a-IslA (Peck et al., 2019); It calls the structure native/wild-type and gives '6-830 (of 830 residues)', so the whole protein is likely, but the words 'full length' are not used; also called IsIA; wild-type IslA; source: E. coli BL21(DE3), purified (Ni-NTA, dialysis); not shown: His-tag, N-terminal, kept
The stoichiometry N is the number of molecules, sites or subunits per partner or assembly. On to B1, for which the “stoichiometry N” value in series [4] worked out at 2.
